In the supplement of paper PMC10724198:
± gives the standard deviation of the averaged measurements.

Tested on: Saccharomyces cerevisiae
Assay: protein stability index of tFT-peptide fusion (C-terminal peptide) (PSI (0-1 scale)); higher = more stable (slower turnover)
Conditions: genetic background: wild type; temperature: 30 C
Description: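 Multiplexed protein stability (MPS) profiling in S. cerevisiae. Random 12-aa peptides (tFT-X12 library) are fused to the C-terminus of a sfGFP-mCherry tandem fluorescent timer, after mCherry and a GGGS linker. Cells are FACS-sorted into 8 mCherry/sfGFP bins and deep-sequenced. The protein stability index (PSI) is the read-weighted bin average, scaled from 0 (unstable) to 1 (stable). Only peptides with >10 reads are reported; cells were grown at 30 °C in SC-His with glucose.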
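Also: PSI is a weighted mean of sequencing reads over stability bins, variants kept only with over 10 reads, mCherry proximal and sfGFP distal, peptide attached via GGGS linker.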

Sequence | protein stability index
WMSVCCRSALVD | 0.65 ± 0.011
STTPKFNILASD | 0.646 ± 0.022
SPAFSLIPCPLF | 0.742 ± 0.059
DCFSLVLRFTPV | 0.64 ± 0.034
SPDLTRPPLPPP | 0.693 ± 0.015
FSSFVVVGCWPR | 0.625 ± 0.027
TPWIRGRTHPGR | 0.705 ± 0.016
RVDALVHLPLRL | 0.629 ± 0.03
RRGTRGGGGRER | 0.638 ± 0.019
LPCGPRGLTRPP | 0.661 ± 0.0091
DPSQRRPDCCTY | 0.729 ± 0.039
GPSQLRLSSCSF | 0.716 ± 0.041
PLPARSPPPTSV | 0.652 ± 0.026
ATACSIMISNAV | 0.662 ± 0.029
ASEHRPPRPHER | 0.683 ± 0.071
GRGAKPYIKQVY | 0.721 ± 0.034
PPPSPPLPPHSP | 0.7619 ± 0.0011
VTPLPHPPLPPP | 0.756 ± 0.089
VEYGRLPRGEEG | 0.645 ± 0.13
WVGGDINFWWGG | 0.747 ± 0.12
LFSSFFSAAFAS | 0.677 ± 0.064
GGDCGERRGNEV | 0.65 ± 0.05
SILRRFSPPPLL | 0.75 ± 0.051
PAPSPLPPPPSL | 0.6978 ± 0.0057
KNKGKHKGGKYR | 0.721 ± 0.059

Sequence | protein stability index
YQSHFERSGVAR | 0.674 ± 0.077
YRSLFPAPPLHP | 0.6747 ± 0.0026
EKVGVTVLLRHV | 0.679 ± 0.038
RPELGLCAGDTN | 0.673 ± 0.061
EILGFVFGFFFL | 0.5711 ± 0.0016
QSRYASDLRNGL | 0.699 ± 0.065
DGKLNTASIEKV | 0.684 ± 0.036
WVVSRGPFAVGP | 0.68 ± 0.021
RIAPSLPPSSFL | 0.688 ± 0.0095
FGDLAVFFAFLL | 0.564 ± 0.0069
VTPPGFTYVLEV | 0.619 ± 0.058
KKKKLKQKKNKQ | 0.655 ± 0.008
LLWCPLRSIGLS | 0.696 ± 0.044
KLNDTLKDRQNK | 0.67 ± 0.037
CPLPIKANLSFP | 0.705 ± 0.037
LRSPPPVSHRLP | 0.822 ± 0.048
IAYGCCYKELII | 0.63 ± 0.046
SPLRPPSLPAPG | 0.653 ± 0.015
NALGRPSAFILT | 0.695 ± 0.057
VFALSSVAIRRS | 0.64 ± 0.032
ENRGSGLQACGA | 0.716 ± 0.1
YPIRPRYSPAGN | 0.721 ± 0.043
PKVDLSVVRSGY | 0.638 ± 0.016
SRPLANYARCSS | 0.639 ± 0.036
SWYQPSLREYAQ | 0.74268 ± 0.00062

Sequence | protein stability index
DRHWLELVGLWS | 0.75 ± 0.049
RLLMIFTSKMFM | 0.6623 ± 0.0019
SLLLFPCPWFGL | 0.677 ± 0.019
AGSVIPCPASRP | 0.695 ± 0.029
ELGSIYDGWARA | 0.691 ± 0.011
VLTSLVRGVFTG | 0.632 ± 0.069
INWIHERNDKSI | 0.734 ± 0.027
RKKENKIANRKI | 0.6893 ± 0.00094
EKRDRKKNPRGS | 0.744 ± 0.1
LASCAFQFLASC | 0.691 ± 0.098
RGWAGGRQGCGG | 0.746 ± 0.055
YPSDLRPPSSPI | 0.7512 ± 0.0041
YGGLFFLVSLPP | 0.566 ± 0.0082
GGFRREPWEILR | 0.649 ± 0.0012
FVVVLSPLVILQ | 0.5344 ± 0.0049
SEKKKKNKKNKK | 0.714 ± 0.2
PPPPPPASPPSP | 0.71 ± 0.015
RDPTPPNPPPSR | 0.763 ± 0.057
PPRFLPFPPLPL | 0.75493 ± 0.00067
KRCTFCGGGWVM | 0.7276 ± 0.00082
PPVLVPAHHRPD | 0.651 ± 0.014
RPVSQRRRKHIG | 0.645 ± 0.064
IRRAGPMVAKGK | 0.649 ± 0.086
LLRLPPPSPRYH | 0.782 ± 0.019
QLETFGRDLTIP | 0.716 ± 0.11

Sequence | protein stability index
LFKRTWRVEGFG | 0.705 ± 0.094
APASPSFPLSAP | 0.673 ± 0.025
PTPLRILFALTP | 0.611 ± 0.12
LSRPTSWLLSFL | 0.777 ± 0.12
SGMGAIADENKE | 0.635 ± 0.051
VVLGFGPRFRVV | 0.584 ± 0.018
PPSPLPQPRPQT | 0.695 ± 0.014
RVGHGHRSPTRV | 0.677 ± 0.14
PLRLPPPRSPPL | 0.689 ± 0.032
HLPSSRHNPLQN | 0.695 ± 0.037
APLLTRRLPTAH | 0.785 ± 0.025
LFIGFFGIECFI | 0.5798 ± 0.0037
GSWLGVGDRLVC | 0.717 ± 0.17
VFADHPSMHILS | 0.72 ± 0.021
ARPSRPPPPSPP | 0.662 ± 0.018
DHLTGTPPSPTV | 0.72 ± 0.048
DVLSSVRGLTLL | 0.678 ± 0.0082
SGLWAGVDGRSS | 0.6855 ± 0.0021
SDDTIQNQICPG | 0.66 ± 0.059
PLPLSPPLLPAP | 0.6 ± 0.0082
NLPLVDIIPISN | 0.828 ± 0.025
RFRSMTGVIVSE | 0.6772 ± 0.002
PVPRPSERSFLL | 0.7316 ± 0.0057
SPPPSSTSTSTS | 0.688 ± 0.061
GGAFPGPGFGLD | 0.68 ± 0.017

Sequence | protein stability index
PPHLPPPPPVPA | 0.5751 ± 0.0052
VLEVLKTGKKIM | 0.692 ± 0.032
WWEVSFRVGAVR | 0.648 ± 0.025
PTGQEFYRGGTR | 0.6927 ± 0.0047
LTVPCSSSFPLL | 0.647 ± 0.095
RPWAKGTGGRCY | 0.723 ± 0.21
PPLAPPHPCPPP | 0.698 ± 0.018
EEQKAKQKQEYG | 0.639 ± 0.077
GCLLVVGGVWGS | 0.625 ± 0.036
SIDKINKLTPDV | 0.648 ± 0.052
KNSLIKTKESRK | 0.6947 ± 0.0021
GVRGGWVVNRGV | 0.732 ± 0.026
SFPPPFLISLSP | 0.676 ± 0.042
DPWPPPRTRTRT | 0.682 ± 0.015
KKSGTRDKNIQH | 0.676 ± 0.046
VLQEFTFPKVGL | 0.675 ± 0.015
VRDLDMEEISRY | 0.727 ± 0.05
KMYILKGKIRKI | 0.612 ± 0.057
RYTKYKSYPYDI | 0.6897 ± 0.0023
QEKTKTYPIPQR | 0.688 ± 0.041
GYTDPYPAAAPS | 0.639 ± 0.056
LPPSPPPFPPLP | 0.642 ± 0.011
PRLHRRPAYTFI | 0.606 ± 0.022
SARRFPPPPSSS | 0.702 ± 0.046
VEGINSQERLGV | 0.724 ± 0.07

Sequence | protein stability index
KNKKKNQIENRT | 0.692 ± 0.0014
DRSRATRSPHIN | 0.703 ± 0.023
LPPLRVIANIRG | 0.659 ± 0.019
LLSCVRSHPDAP | 0.702 ± 0.073
SPSLAPSPSALL | 0.598 ± 0.018
GLYVDRTVEVGG | 0.6228 ± 0.0035
VVLVGVVGGMVG | 0.639 ± 0.018
WGRCLGWAGPAG | 0.788 ± 0.11
RGRRPRPGGTGT | 0.641 ± 0.016
KKSDTKKKGQNK | 0.673 ± 0.048
SGVSRSGREFRN | 0.634 ± 0.088
LEVLGVPQLIRS | 0.534 ± 0.07
CLSHSIYYSFSF | 0.691 ± 0.086
PHRPPPHHSLPP | 0.6976 ± 0.0013
KKKKRKGKRQPR | 0.671 ± 0.041
GNIKPNEDRGGP | 0.793 ± 0.027
TLCLPPPVAWQH | 0.6544 ± 0.0047
SLDFRSARFSLG | 0.65 ± 0.014
SVGLLLSPFPPL | 0.6882 ± 0.0063
SPGRSSTLPPVF | 0.7101 ± 0.00072
LVCKRQGQANFI | 0.689 ± 0.06
CVAFLPISSFTS | 0.76 ± 0.07
ASPFASCPPSLP | 0.714 ± 0.037
SHRSALLPFLPP | 0.646 ± 0.046
LVSLGLHAGKRI | 0.70514 ± 0.0004

Sequence | protein stability index
TPGDAVICSFYI | 0.642 ± 0.015
PPPSAPLPPLPL | 0.714 ± 0.019
EGRTQTLPSRVT | 0.638 ± 0.05
VGGGGGVSLGGR | 0.655 ± 0.087
RTSCEQYERGLM | 0.673 ± 0.012
CGSCFIKRFGGG | 0.631 ± 0.034
ATRLFSSNLFLR | 0.576 ± 0.051
SCITFGGWLGGM | 0.709 ± 0.13
PSPPPRRPPAPP | 0.666 ± 0.017
SMRLELAALLVI | 0.546 ± 0.033
SRIALLSLGAIL | 0.707 ± 0.028
QFDRDCAWRPDV | 0.653 ± 0.039
PSGGAVEGMGGE | 0.668 ± 0.059
GELADVVWLGGE | 0.652 ± 0.057
HSHTHRHSHGTR | 0.7 ± 0.083
LLGASIIGQFYL | 0.758 ± 0.011
GYFSTFIKSSML | 0.715 ± 0.029
PGRMEKKALKRP | 0.677 ± 0.014
SEPPFSFLNVSP | 0.676 ± 0.018
KKNKRKLKKKKK | 0.72 ± 0.087
PPPLPPPCSAPP | 0.736 ± 0.012
KKKKQKNNRKKP | 0.574 ± 0.059
GGREVGQVLWDD | 0.667 ± 0.024
PPGPRPTPPPPI | 0.641 ± 0.045
VLPHFSLSTPSP | 0.7493 ± 0.0052

Sequence | protein stability index
IGRSPRVLSATP | 0.6534 ± 0.0059
EPPQPPSLPPLF | 0.739 ± 0.0085
FCPPLSFPPPLS | 0.718 ± 0.13
FGGGLGGGVVLV | 0.69158 ± 0.00021
LISRQFPNHGWT | 0.675 ± 0.044
MVRRDGMTVSLG | 0.719 ± 0.028
LPDSYAVVPPTS | 0.642 ± 0.068
PHRPTALALHWF | 0.66 ± 0.0067
IPSCAGLPLSLS | 0.7134 ± 0.0019
WGCVGVVGLFSG | 0.656 ± 0.047
KVAECGYGTSWV | 0.724 ± 0.013
CCRRWSLEWGRG | 0.717 ± 0.038
LFFSLLCSSFGS | 0.708 ± 0.022
PFHSLSATFPPR | 0.768 ± 0.086
MMEQLCCRRRLF | 0.496 ± 0.041
KNEGYHNVTMNL | 0.707 ± 0.017
VVWKRALWGEGL | 0.791 ± 0.073
FCSPLPSSPPLP | 0.658 ± 0.028
APPPPPPPCAPS | 0.657 ± 0.043
RRAKMHSRRSLA | 0.648 ± 0.053
CMASCTRSYYRL | 0.661 ± 0.005
